Article PMC9439264

Biological target: HA trimer of A/Beijing/262/1995 (H1N1), thrombin- and trypsin-treated, for the immune complex (Influenza A virus A/Beijing/262/1995 (H1N1))
Experiment: cryo-EM structure; 12H5 Fab with thrombin- and trypsin-treated BJ/1995 HA trimer

## HA trimer of A/Beijing/262/1995 (H1N1), thrombin- and trypsin-treated, for the immune complex
  stoichiometry N: 3
